Results from IntAct's records for PubMed 14668441.

Biological target: arnt_human ARNT (UniProt P27540)

effect of a mutation on the interaction: disrupting interaction strength
Substance: Endothelial PAS domain-containing protein 1 (Homo sapiens), Q99814 Q322E;M338E;Y342T
